The numbers were not newly measured in paper PMC4243993, which cites them from elsewhere.

In this series the target is His105 (UniProt position 105, PPVKIHCSILA).

As to “Iron-sulfur cluster assembly scaffold protein IscU (Escherichia coli)”, the pKa result is “around 9”.
